Test results reported in the RNAGym collection of RNA variant scans (doi:10.1073/pnas.2313332121).

B1: TPR t1 (parent)
chain: GACCAAUCUGCCCUCAGAGCUCGAGAACAUCUUCGGAUGCAGAGGAGGCAGGCUUCGGUGGCGCGAUAGCGCCAACGUCCUCAACCUCCAAUGCAUCCCACCACAUGAUGAUGCCUGAAGAGCCUUGGUUUUUUG

Variants of: B1
Test: polymerase ribozyme fitness, log enrichment relative to wild type (log ratio); higher = more active; in vitro selection for triplet polymerase activity
Method in brief: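 Mutant libraries for each subunit of a heterodimeric triplet polymerase ribozyme were made by PCR and then transcribed. Each library underwent one round of in vitro selection in triplicate: annealing with a biotinylated primer, the partner subunit and triplets, frozen incubation at −7 °C, gel excision of extended constructs, streptavidin-bead capture and RT-PCR. Input and output libraries were Illumina-sequenced, and only genotypes with ≥10 input reads and ≥1 read per output were kept. Fitness is the logarithm, base 2, of genotype enrichment over wild-type enrichment, computed from inverse-variance-weighted replicate averages.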

Q: With GACCAAUCUGCACUCAGAGCUCGAGAACAUCUUCGGAUGCAGAGGAGGCAGGCUUCGGUGGCGCGAUAUCGCCAACGUCCUCAACCUCCAAUGCAUCCCACCACAUCAUGAUGCCUCAAGAGCCUUGGUUUUUUG as the variant, how does the “polymerase ribozyme fitness (log ratio)” value read?
A: -6.81

Q: For GACCAAUCUGCGCUCUGAGCUCGAGAACAUCUUCGGAUGCAGAGGAGACAGGCUUCGGUGGCGCGAUAGCGCCAACGUCCUAAACCUCCAAUGCAUCCCACCACAUGAUGAUGCCUGAAGAGCCUUGGUUUUUUG, which “polymerase ribozyme fitness (log ratio)” value is on record?
A: -3.19

Q: For GACCAAUCUGCACGCAGAGCUCGAGAACAUCUUCGGAUGCAGAGGAGGCAGGCUUCGGUGGCGCGAUAGCUCCAACGUCCUCAACCUCCAAUGCAUCCCACCACAUGAUGAUGCCUGAAGAGCCUUGGUUUUUUG, which “polymerase ribozyme fitness (log ratio)” value is on record?
A: -2.39

Q: With GACCAAUCUGCGCUCGGAGCUCGAGAACAUCUUCGGAUGCAGAGGAGGCAGGAUUCGGUGGCGCGAUAGCGCCAACGUCUUCAACCUCCAAUGCAUCCCACCACAUGAUGAUGCCUGAAGAGCCUUGGUUUUUUG as the variant, how does the “polymerase ribozyme fitness (log ratio)” value read?
A: -5.01

Q: Which “polymerase ribozyme fitness (log ratio)” value does the source give for GACCAAUCUGCACUCAGAGCUCGAGAACAUCUUCGGAUGCAGAGGAGGCAGGCUUCGGUGUCGCGAUAGCGCCAACGUCCUCAACCUCCAAUGCAUCCCACCAUAUGCUGAUGCCUGAAGUGCCUUGGUUUUUUG here?
A: -3.79

Q: For GACCAAUCUGCACUCAGAGCUCGAGAACAUCUUCGGAUGCAGAGGAGGCAGGCUUCGGUGACGUGAUAGCGCCAACGUCCUCAACCUCCAAUGCAUCCCACCACAUGAUGAUGCCUGAAGAGCCUUGGUUUUUUG, which “polymerase ribozyme fitness (log ratio)” value is on record?
A: -4

Q: With GACCAAUCUGCACUCAGAGCUCGAGAACAUCUUCGGAUGCAGAGGAGGCAGGCUUCGGUGGCGCGAUAGCGCCAACGUCCACAACCUCCAAUGCAUCCCACCACAUGAUGAUGCCUGAAGAGCCUUGGUUUUAUG as the variant, how does the “polymerase ribozyme fitness (log ratio)” value read?
A: -1.05

Q: For GACCAAUCUGCACACAGAGCUCGAGAAUAUCUUCGGAUGCAGAGGAGGCAGGCUUCGGUGGCGCGAUAGCGCCAACGUCCUCAAUCUCCAAUGCAUCCCACCACAUGAUGAUGCCUGAAGAGCCUUGGUUUUUUG, which “polymerase ribozyme fitness (log ratio)” value is on record?
A: -3.93

Q: With GACCAAUCUGCACUCAGAGCUCGAGAACAUCUUCGGAUGCAGAGGAGGCAGGCUUCGGUGGCGCGAUAGCGCCAACGUCCCCAACCUCCAAUGCAUCCCACCACAUGAUGAUGCCUGAAGAGCCUUGGUUUUUUG as the variant, how does the “polymerase ribozyme fitness (log ratio)” value read?
A: -1.73

Q: Which “polymerase ribozyme fitness (log ratio)” value does the source give for GACCAAUCUGCACUCAGAGCUCGAGAACAUCUUCGGAUGCAGAGGAGGCAGGCUUCGGUGGCGCGAUAGCACCAACGUCCUCAACCUCCAAUGCAUCCCACCACAUGAUGAUGCCUGAAGAGCCUUGGUUUUUUG here?
A: -1.07

Q: With GACCAAUCUGCGCUCAGAGCUCGAGAACAUCUUCGGCUGCUGAGGAGGCAGGCUUCGGUGGCGCGAUAGCGCCAACGUACUCAACCUCCAAUGCAUCCCACCACAUGAUGAUGCCUGAAGAGCCUUGGUUUUUUG as the variant, how does the “polymerase ribozyme fitness (log ratio)” value read?
A: -3.13

Q: With GACCAAUCUGCACUCAGAGCUCGAGAACAUCUUCGGAUGCAGAGGAGGCAGGCUUCGGUGGCGCGAUAACGCCAACGUCCUCAACCUCCAAUGCAUCCCACCACAUGAUGAUGCCUGAAGAGCCUUGGUUUUUUG as the variant, how does the “polymerase ribozyme fitness (log ratio)” value read?
A: -2.89

Q: With GACCAAUCUGCACUCAGAGCUCGAGAACAUCUUCGGAUGCAGAGGAGGCAGGCUUCGGUGGCGCGAUAUCGCCAACGUCCUCAACCUCCAAUGCAUCCCACCACAUGAUGAUGCCUGAAGAGCCUUGGUUUUUUG as the variant, how does the “polymerase ribozyme fitness (log ratio)” value read?
A: -0.288

Q: For GACCAAUCUGCACUCAGAGCUCGAGAACAUCUUCGGAUGCAGAGGAGGCAGGCUUCGAUGGCGCGAUAGCGCCAACGUCCUCAACCUCCAAUGCAUCCCACCACAUGAUGAUGCCUGAAGAGCCUUGGUUUUUUG, which “polymerase ribozyme fitness (log ratio)” value is on record?
A: -0.259

Q: For GACCAAUCUGCACUCAGAGCUCGAGAACAUCCUCGGAUGCAGAGGAGGCAGGCUUCGGUGGCGCGAUAGCGCCAACGUCCUCAACCUCCAAUGCAUCCCACCACAUAAUGAUGCCUGAAAAGCCUUGGUUUUUUG, which “polymerase ribozyme fitness (log ratio)” value is on record?
A: -3.32

Q: For GACCAAUCUGCACUCAGAGCUCGAGAACAUCUUCGGAUGCAGAGGAGGCAGGCUUCGGUGGCGCGAUAGCUCCAACGUCCUCAACCUCCACUGCAUCCCACCACAUGAUGAUGCCUGAAGAGCCUUGGUUUUUUG, which “polymerase ribozyme fitness (log ratio)” value is on record?
A: -1.77

Q: For GACCAAUCUGCACUCAGAGCUCGAGAACAUCUUCGGAUGCAGAGGAGGCAGGCUUCGGUGUCGCGAUAGUGCCAACGUCCGCAACCUCCAAUGCAUCCCACCACAUGAUGAUGCCUGAAGAGCCUUGGUUUUUUG, which “polymerase ribozyme fitness (log ratio)” value is on record?
A: -4.98

Q: For GACCAAUCUGCACUCAGAGCUCGAGAACAUCUUCGGAUGCAGAGGAGGCAGGCUUCGGUGGCGCGAUAGCGCCAACGCCCUCAACCUCCAAUGCAUCCCACCACAUGAUGAUGCCUGAAGAGCCUUGGUUUUUUG, which “polymerase ribozyme fitness (log ratio)” value is on record?
A: -0.581

Q: Which “polymerase ribozyme fitness (log ratio)” value does the source give for GACCAAUCUGCGCUCAGAGCUCGAGAACUUCUUCGGAUGCAGAGGAGGCAGGCUUCGGUGGGGCGAUAGCGCCAACGUCCUCAACCUCCAAUGCAUCCCACCACAUGAUGAUGCCUGAAGAGCCUUGGUUUUUUG here?
A: -2.88

Q: With GACCAAUCUGCACUCAGAGCUCGAGAACAUCUUCGGAUGCAGAGGAGGCAGGCUUCGGUGGCGCGAUAGCGCCAACGUCCUCAACCUCCAAUGCAUCCCACCACAUGAUGAUGCCUGAAGAGCCUCGGUUUUUUG as the variant, how does the “polymerase ribozyme fitness (log ratio)” value read?
A: -2.01

Q: For GACCAAUCUGCACUCAGAGCCCGAGAACAUCUUCGGAUGCAGAGGAGGCAGGCUUCGGUGGCGCGAUAGCGCCAACGUCCUCCACCUCCAAUGCAUCCCACCACAUGAUGAUGCCUGAAGAGCCUUGGUUUUUUG, which “polymerase ribozyme fitness (log ratio)” value is on record?
A: -0.123
